The supplement of paper PMC5998384

Experiments:
[1] = system: HeLa Kyoto; assay: melting temperature (median over replicates), in situ; higher = more thermally stable
[2] = system: HeLa Kyoto; assay: solubility in G1/S (NP-40 vs SDS abundance) (log2 ratio); higher = more soluble; conditions: cell cycle stage: G1/S
[3] = system: HeLa Kyoto; assay: solubility change mitosis vs G1/S (difference of NP-40 vs SDS log2 ratios) (log2 ratio difference); higher = more soluble in mitosis
[4] = system: HeLa Kyoto; assay: thermal stability score vs G1/S (z-score of summed log2 fold changes over temperatures); higher = more thermally stable than in G1/S
[5] = cell cycle stage: early G1 (4.5 h after nocodazole release)
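Wherever melting temperature (median over replicates), in situ is given: HeLa Kyoto cells synchronized by double thymidine or nocodazole block, proteins quantified by TMT10plex mass spectrometry, three independent biological replicates.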
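Wherever solubility change mitosis vs G1/S (difference of NP-40 vs SDS log2 ratios) is given: synchronized HeLa Kyoto cells (double thymidine block for G1/S, nocodazole release for mitosis), protein amounts in NP-40 versus SDS lysates quantified by mass spectrometry, three biological replicates.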
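Wherever solubility in G1/S (NP-40 vs SDS abundance) is given: HeLa Kyoto cells arrested at G1/S by double thymidine block, proteins quantified by TMT10plex mass spectrometry in mild NP-40 versus SDS extracts, three biological replicates.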
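Wherever thermal stability score vs G1/S (z-score of summed log2 fold changes over temperatures) is given: synchronized HeLa Kyoto cells, proteins quantified by TMT10plex mass spectrometry, three biological replicates, mitosis taken 0.5 h after nocodazole release, G1/S directly after double thymidine block.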

Sequence | melting temperature ([1]; cell cycle stage: G1/S) [°C] | melting temperature ([1]; cell cycle stage: mitosis) [°C] | solubility in G1/S (log2) [2] | solubility change mitosis (log2) [3] | thermal stability score [4, 5] | thermal stability score ([4]; cell cycle stage: mitosis)
MEGSGEQPGPQPQHPGDHRIRDGDFVVLKREDVFKAVQVQRRKKVTFEKQWFYLDNVIGHSYGTAFEVTSGGSLQPKKKREEPTAETKEAGTDNRNIVDDGKSQKLTQDDIKALKDKGIKGEEIVQQLIENSTTFRDKTEFAQDKYIKKKKKKYEAIITVVKPSTRILSIMYYAREPGKINHMRYDTLAQMLTLGNIRAGNKMIVMETCAGLVLGAMMERMGGFGSIIQLYPGGGPVRAATACFGFPKSFLSGLYEFPLNKVDSLLHGTFSAKMLSSEPKDSALVEESNGTLEEKQASEQENEDSMAEAPESNHPEDQETMETISQDPEHKGPKERGSKKDYIQEKQRRQEEQRKRHLEAAALLSERNADGLIVASRFHPTPLLLSLLDFVAPSRPFVVYCQYKEPLLECYTKLRERGGVINLRLSETWLRNYQVLPDRSHPKLLMSGGGGYLLSGFTVAMDNLKADTSLKSNASTLESHETEEPAAKKRKCPESDS [TRMT6] | 54.9 | 56.2 | 0.0845 | 0.019 | 2.23 | 0.0663
MEIIRSNFKSNLHKVYQAIEEADFFAIDGEFSGISDGPSVSALTNGFDTPEERYQKLKKHSMDFLLFQFGLCTFKYDYTDSKYITKSFNFYVFPKPFNRSSPDVKFVCQSSSIDFLASQGFDFNKVFRNGIPYLNQEEERQLREQYDEKRSQANGAGALSYVSPNTSKCPVTIPEDQKKFIDQVVEKIEDLLQSEENKNLDLEPCTGFQRKLIYQTLSWKYPKGIHVETLETEKKERYIVISKVDEEERKRREQQKHAKEQEELNDAVGFSRVIHAIANSGKLVIGHNMLLDVMHTVHQFYCPLPADLSEFKEMTTCVFPRLLDTKLMASTQPFKDIINNTSLAELEKRLKETPFNPPKVESAEGFPSYDTASEQLHEAGYDAYITGLCFISMANYLGSFLSPPKIHVSARSKLIEPFFNKLFLMRVMDIPYLNLEGPDLQPKRDHVLHVTFPKEWKTSDLYQLFSAFGNIQISWIDDTSAFVSLSQPEQVKIAVNTSKYAESYRIQTYAEYMGRKQEEKQIKRKWTEDSWKEADSKRLNPQCIPYTLQNHYYRNNSFTAPSTVGKRNLSPSQEEAGLEDGVSGEISDTELEQTDSCAEPLSEGRKKAKKLKRMKKELSPAGSISKNSPATLFEVPDTW [PARN] | 48.7 | 50.7 | -0.144 | -0.0471 | 1.32 | 2.89
MEKARRGGDGVPRGPVLHIVVVGFHHKKGCQVEFSYPPLIPGDGHDSHTLPEEWKYLPFLALPDGAHNYQEDTVFFHLPPRNGNGATVFGISCYRQIEAKALKVRQADITRETVQKSVCVLSKLPLYGLLQAKLQLITHAYFEEKDFSQISILKELYEHMNSSLGGASLEGSQVYLGLSPRDLVLHFRHKVLILFKLILLEKKVLFYISPVNKLVGALMTVLSLFPGMIEHGLSDCSQYRPRKSMSEDGGLQESNPCADDFVSASTADVSHTNLGTIRKVMAGNHGEDAAMKTEEPLFQVEDSSKGQEPNDTNQYLKPPSRPSPDSSESDWETLDPSVLEDPNLKEREQLGSDQTNLFPKDSVPSESLPITVQPQANTGQVVLIPGLISGLEEDQYGMPLAIFTKGYLCLPYMALQQHHLLSDVTVRGFVAGATNILFRQQKHLSDAIVEVEEALIQIHDPELRKLLNPTTADLRFADYLVRHVTENRDDVFLDGTGWEGGDEWIRAQFAVYIHALLAATLQLDNEKILSDYGTTFVTAWKNTHNYRVWNSNKHPALAEINPNHPFQGQYSVSDMKLRFSHSVQNSERGKKIGNVMVTTSRNVVQTGKAVGQSVGGAFSSAKTAMSSWLSTFTTSTSQSLTEPPDEKP [AVL9] | 54.3 | 54.1 | 0.0785 | -0.155 | 0.365 | 0.676
MEKGLTLPQDCRDFVHSLKMRSKYALFLVFVVIVFVFIEKENKIISRVSDKLKQIPQALADANSTDPALILAENASLLSLSELDSAFSQLQSRLRNLSLQLGVEPAMEAAGEEEEEQRKEEEPPRPAVAGPRRHVLLMATTRTGSSFVGEFFNQQGNIFYLFEPLWHIERTVSFEPGGANAAGSALVYRDVLKQLFLCDLYVLEHFITPLPEDHLTQFMFRRGSSRSLCEDPVCTPFVKKVFEKYHCKNRRCGPLNVTLAAEACRRKEHMALKAVRIRQLEFLQPLAEDPRLDLRVIQLVRDPRAVLASRMVAFAGKYKTWKKWLDDEGQDGLREEEVQRLRGNCESIRLSAELGLRQPAWLRGRYMLVRYEDVARGPLQKAREMYRFAGIPLTPQVEDWIQKNTQAAHDGSGIYSTQKNSSEQFEKWRFSMPFKLAQVVQAACGPAMRLFGYKLARDAAALTNRSVSLLEERGTFWVT [CHST3] | 55.3 | 53.5 | 0.15 | -0.0403 | -1.54 | -0.213
